Data taken from patent US20220127357A1 (LEPU BIOPHARMA, published 2022).
Where a chain is given by its changes, count along the chain named.

B1: G08 antibody (antibody, V domains shown)
VH: QIQLQQSGPELVKPGASVKISCKASGDTFTDYYINWVKQKPGQGLEWIGWIYTGSGNTKYNEKFKGKTTLTVDTSSSTAYMQLNSLTSEDTAVYFCARYNPLITAVVPDYWGQGTTLTVSS
VL: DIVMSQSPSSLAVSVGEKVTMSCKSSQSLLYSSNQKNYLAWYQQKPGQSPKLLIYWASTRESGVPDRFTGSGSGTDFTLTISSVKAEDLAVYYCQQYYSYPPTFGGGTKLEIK
notes: Mouse variable domains from a Fab phage library of immunized mice; also called G08 clone; mAb G08
B2: H06 antibody (antibody, V domains shown)
VH: QIQLQQSGPELVKPGASVKISCKASGYTFTDYYINWVKQKPGQGPEWIGWIYPGSANTKYSEKVKGKATLTVDTSSTTAYMQLSSLTSDDTAVYFCTRNDPLITAVVPDYWGQGTTLTVSS
VL: DIVMSQSPSSLAVSVGEKVTMSCRSSQSRLYSSNQKNYLAWYQQKPGQSPKLLIYWASTRESGVPDRFTGSGSGTDFTLTISSVKAEDLAVYYCQQYYNYPPTFGGGTKLEIK
notes: Mouse variable domains from a Fab phage library of immunized mice; also called H06 clone; mAb H06
B3: B5716 (antibody, V domains shown)
VH: QIQLVQSGAEVKKPGASVKVSCKASGYTFTDYYINWVRQAPGQGLEWMGWIYPGSANTKYSEKVKGRVTMTVDTSITTAYMELSRLRSDDTAVYYCTRNDPLITAVVPDYWGQGTTVTVSS
VL: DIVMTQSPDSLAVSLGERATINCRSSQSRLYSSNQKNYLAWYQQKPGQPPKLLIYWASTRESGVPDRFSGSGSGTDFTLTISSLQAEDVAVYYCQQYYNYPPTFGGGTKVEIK
notes: Humanized
B4: B5712 (antibody, V domains shown)
VH: QVQLVQSGAEVKKPGASVKVSCKASGDTFTDYYINWVRQAPGQGLEWMGWIYTGSGNTKYNEKFKGRVTMTRDTSISTAYMELSRLRSDDTAVYYCARYNPLITAVVPDYWGQGTTVTVSS
VL: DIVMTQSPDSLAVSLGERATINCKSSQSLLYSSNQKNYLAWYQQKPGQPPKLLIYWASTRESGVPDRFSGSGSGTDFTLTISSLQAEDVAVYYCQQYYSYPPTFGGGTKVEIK
notes: Humanized; also called HSP206A-CDRG
B5: B5715 (antibody, V domains shown)
VH: B3 VH with I2V, V72R, T77S, T97A
VL: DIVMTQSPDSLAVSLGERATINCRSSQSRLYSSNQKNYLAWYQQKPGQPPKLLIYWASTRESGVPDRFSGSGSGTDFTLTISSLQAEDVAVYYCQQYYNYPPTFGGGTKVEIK
notes: Humanized; also called HSP206B-CDRG
B6: B5713 (antibody, V domains shown)
VH: B4 VH with V2I, R72V
VL: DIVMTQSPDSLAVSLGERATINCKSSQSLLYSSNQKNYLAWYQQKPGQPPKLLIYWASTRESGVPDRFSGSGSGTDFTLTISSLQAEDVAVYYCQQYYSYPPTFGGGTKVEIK
notes: Humanized
B7: B5711 (antibody, V domains shown)
VH: B1 VH
VL: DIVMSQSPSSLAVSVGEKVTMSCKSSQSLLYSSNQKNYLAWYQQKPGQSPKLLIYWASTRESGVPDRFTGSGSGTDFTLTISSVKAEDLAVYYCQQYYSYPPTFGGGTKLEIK
notes: Expressed in 293F cells, purified by protein G
B8: B5714 (antibody, V domains shown)
VH: B2 VH
VL: B2 VL

The binders below were run against T1, human CD47-His protein (human, UniProt Q08722 19-139) (assay: ELISA, purified antibody titrated on CD47-His protein, OD 450nm).
T1 construct: Recombinant human CD47 with His tag; also called human CD47-his tag protein; CD47 antigen; not shown: His tag
T1 sequence (Q08722 19-139 limits assumed): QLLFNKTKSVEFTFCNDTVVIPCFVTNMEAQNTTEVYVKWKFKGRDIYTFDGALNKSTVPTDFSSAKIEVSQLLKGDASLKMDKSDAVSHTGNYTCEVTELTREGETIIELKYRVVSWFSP
Binder B1 has an EC50 of 5.93 ng/mL. B2 showed an EC50 of 5.39 ng/mL.

The binders below were run against T2, cyno CD47-His protein (cynomolgus, UniProt A0A2K5X523 19-139) (assay: ELISA on cyno CD47-His protein, OD 450nm [Cont'd) B]).
T2 construct: also called cynomolgus CD47; not shown: His tag
For B3, the EC50 was 9.79 ng/mL. With B4 the EC50 was 10.2 ng/mL. For B5, the EC50 was 9.23 ng/mL. In the case of B6, the EC50 is reported as 9.5 ng/mL. With B7 the EC50 was 7.95 ng/mL. B8 showed an EC50 of 8.45 ng/mL.

What follows are binders tested against T1, human CD47-His protein (assay: SPR (Biacore) affinity ranking, antibody captured on protein A chip, 5 nM human CD47-his injected; affinity ranking, single 5 nM injection of human CD47-his, 130s dissociation).
Procedure: (§1) To explore the binding kinetics of the humanized antibody, this example performed the affinity ranking using biacore. B5711, B5712, B5713, B5714, B5715 and B5716 mAbs were captured using protein A chip. 5 nM of human CD47-his tag protein was injected over captured antibodies for 120s at a flow rate of 30 μL/min. The antigen was allowed to dissociate for 130s.
In the case of B7, the kon is reported as 4.67e+06 M⁻¹ s⁻¹.

The binders below were run against T3, Tag2-CD47 (UniProt Q08722 19-139) (assay: HTRF blocking assay, ratio 665 nm/615 nm; blocked ligand: Tag1-SIRP-α binding to Tag2-CD47).
T3 construct: Tagged reagent of the HTRF assay; also called CD47 (HTRF assay)
T3 sequence (Q08722 19-139): as the sequence (Q08722 19-139 limits assumed) above
Description: (§2) To further evaluate the functions of the mouse anti-huCD47 mAbs on blocking SIRP-α interaction, the HTRF assay was employed. The interaction between Tag1-SIRP-α and Tag2-CD47 was detected by using anti-Tag1-Terbium (HTRF donor) and anti-Tag2-XL665 (HTRF acceptor). When the donor and acceptor antibodies were brought into close proximity due to SIRP-α and CD47 binding, excitation of the donor antibody triggered fluorescent resonance energy transfer (FRET) towards the acceptor antibody, which in turn emits specifically at 665 nm. This specific signal is directly proportional to the extent of CD47/SIRP-α interaction. Thus, a molecule blocking CD47/SIRP-α interaction would cause a reduction in HTRF signal.
G08 and H06 antibodies were evaluated for their activity to blocking the interaction of CD47 and SIRP-α.
In the case of B1, the IC50 is reported as 270 pM. In the case of B2, the IC50 is reported as 210 pM.

Target: T3, Tag2-CD47
Experiment: as above
Remark: another data set of the same source
Description: as §2, with “To” for “To further”, “activities” for “functions”, “humanized” for “the mouse”, “triggers” for “triggered”, “emitted” for “emits”
Anti-CD47 antibodies B5711, B5712, B5713, B5714, B5715, and B5716 were evaluated on their activities in blocking the interaction of CD47 and SIRP-α.
B3 gave an IC50 of 138 pM. With B4 the IC50 was 160 pM. For B5, the IC50 was 160 pM. In the case of B6, the IC50 is reported as 210 pM. Binder B7 has an IC50 of 170 pM. In the case of B8, the IC50 is reported as 140 pM.

What follows are binders tested against T1, human CD47-His protein (assay: ELISA on human CD47-His protein, OD 450nm).
Work on B3 yielded an EC50 of 11.5 ng/mL. In the case of B4, the EC50 is reported as 5.35 ng/mL. Work on B5 yielded an EC50 of 7.09 ng/mL. B6 showed an EC50 of 7.6 ng/mL. With B7 the EC50 was 4.96 ng/mL. B8 showed an EC50 of 6.49 ng/mL.

What follows are binders tested against T1, human CD47-His protein (assay: SPR (Biacore) affinity ranking, antibody captured on protein A chip, 5 nM human CD47-his injected).
Procedure: as §1
Binder B3 has a Kd of 547 pM, a koff of 0.00452 s⁻¹ and a kon of 8.26e+06 M⁻¹ s⁻¹. B4 was tested, and the Kd was 1280 pM, the koff was 0.00276 s⁻¹ and the kon was 2.15e+06 M⁻¹ s⁻¹. B5 showed a Kd of 979 pM, a koff of 0.00234 s⁻¹ and a kon of 2.39e+06 M⁻¹ s⁻¹. B6 showed a Kd of 1000 pM, a koff of 0.00353 s⁻¹ and a kon of 3.53e+06 M⁻¹ s⁻¹. Work on B7 yielded a Kd of 819 pM and a koff of 0.00383 s⁻¹. B8 showed a Kd of 1540 pM, a koff of 0.00291 s⁻¹ and a kon of 1.89e+06 M⁻¹ s⁻¹.

These binders were tested against T1, human CD47-His protein (assay: SPR (Biacore T200) full kinetics, antibody captured on protein A chip, serial dilution of human CD47-his injected).
Procedure: The binding of the humanized antibodies to recombinant CD47 protein (human CD47-his tag) was tested by BIACORE™ using a capture method. B5712 and B5715 mAbs were captured using protein A chip. A serial dilution of human CD47-his tag protein was injected over captured antibody for 120s at a flow rate of […]. The antigen was allowed to dissociate for 600s. All the experiments were carried out on a Biacore T200.
B4 was tested, and the Kd was 847 pM, the koff was 0.00128 s⁻¹ and the kon was 1.51e+06 M⁻¹ s⁻¹. Work on B5 yielded a Kd of 560 pM, a koff of 0.000287 s⁻¹ and a kon of 513000 M⁻¹ s⁻¹.
